Measured values from patent publication US6323311A, “Synthesis of insulin derivatives” (University of Utah Research Foundation, priority 1999, dated 2001).
Read-outs that look alike come from different tables or passages of the source.

Assays:
[1] = Accelerated shaking test, physical stability of mCE-PEG insulin conjugates (fibril formation/precipitation); format: physicochemical; settings: 87 μM, 37° C., shaker 100 strokes/min, n=14 vials
Protocol: The long term physical stability of PEG-insulin derivatives was examined by their tendency to form fibrils in the accelerated shaking test at a concentration of 87 μM. Aggregation was evaluated in 5 ml borosilicate glass vials (1.2 ml filling volume) at 37° C., in a shaker at 100 strokes/min. Individual vials (n=14) were withdrawn at determined times, and the remaining soluble fraction of particular PEG-insulin derivatives was determined after filtration (PVDF membrane, 0.22 μm) using UV spectroscopy and/or HPLC. In parallel, vials were checked visually on a daily basis for the presence of turbidity and/or a precipitate, which was an independent indication that physical aggregation had occurred.

[2] = system: male Sprague-Dawley rats; assay: Biological activity of mCE-PEG insulin conjugates, blood glucose depression in rat after i.v. injection; format: in vivo; settings: from blood glucose AUC vs unmodified human insulin, fresh solution in PBS 20 μg/ml
Protocol: The biological activity of mCE-PEG-substituted insulin conjugates was tested in a rat model (male Sprague-Dawley rats, 250±50 g) by measuring blood glucose depression levels. The animals were fasted overnight (16 hours) prior to the experiment. In the morning, the rats were anesthetized with intraperitoneally administered sodium pentobarbital. Each animal received an i.v. injection (tail vein) of the particular insulin derivative (20 μg/ml NS/kg). Blood samples were taken from the jugular vein 15 and 5 minutes before injection and 15, 30, 60, 90, 120, 180, and 240 minutes after injection. Blood glucose levels were measured with an Accucheck III blood glucose monitor (Boehringer Mannheim). Bioactivities of insulin derivatives were calculated from AUC (area under curve) values, and the AUC value for the same dose of unmodified human insulin.

[3] = system: Inbred A/J and C57BL/10ScSn mice; settings: intraperitoneal, 3 x 5 μg
Protocol: Inbred A/J and C57BL/10ScSn mice, 12 weeks old, were used throughout the experiments. Mice (10 per experimental group) were immunized intraperitoneally with 5 μg samples on day 0. Samples were injected either in soluble form (dissolved in PBS, pH 7.4) or as a precipitate (alum precipitate). After 3 weeks, the mice were given a secondary injection, and after another 3 weeks, a third injection. Eight days after the last immunization, the mice were exsanguinated and the serum was separated and stored at -80° C. The specific antibody level in the serum was determined by an ELISA indirect method as described in 44 J. Clin. Lab. Immunol. 191-241 (1994).

[4] = strain A/J, Soluble formulation
[5] = strain B10, Soluble formulation

Row | Substance | Days to Precipitation ± S.D. [1] [days] | Biological Activity ± S.D. [2] [IU/mg] | Antibody Titres ([3]; strain A/J, Alum ppt.) | Antibody Titres [3, 4] | Antibody Titres ([3]; strain B10, Alum ppt.) | Antibody Titres [3, 5]
1 | GlyA1-LysB29-di-mCE-PEG insulin [A1-B29-(PEG600)2 Insulin] | 8.4 ± 1.3 | 19.1 ± 3.6 | – | – | – | –
2 | GlyA1-LysB29-di-mCE-PEG insulin [A1-B29-(PEG2000)2 Insulin] | – | 10.6 ± 2.1 | – | – | – | –
3 | GlyA1-PheB1-LysB29-tri-mCE-PEG insulin [A1-B1-B29-(PEG600)3 Insulin] | 35.9 ± 5.3 | 5.3 ± 1.1 | 0 log2 of serum dilution | 0 log2 of serum dilution | 0 log2 of serum dilution | 0 log2 of serum dilution
4 | GlyA1-PheB1-di-mCE-PEG insulin [A1-B1-(PEG600)2 Insulin] | 26.4 ± 4.6 | 16.2 ± 3.2 | – | – | – | –
5 | GlyA1-PheB1-di-mCE-PEG insulin [A1-B1-(PEG2000)2 Insulin] | 19.3 ± 2.3 | – | – | – | – | –
6 | GlyA1-mCE-PEG insulin [A1-PEG600 Insulin] | – | 22.2 ± 4.2 | – | – | – | –
7 | GlyA1-mCE-PEG insulin [A1-PEG2000 Insulin] | – | 15.7 ± 3.1 | – | – | – | –
8 | PheB1-mCE-PEG insulin [B1-PEG600 Insulin] | 22.0 ± 4.6 | 22.8 ± 4.2 | 6.1 log2 of serum dilution | 0 log2 of serum dilution | 9.5 log2 of serum dilution | 0 log2 of serum dilution
9 | PheB1-mCE-PEG insulin [B1-PEG2000 Insulin] | – | 15.4 ± 2.6 | 0 log2 of serum dilution | 0 log2 of serum dilution | 0 log2 of serum dilution | 0 log2 of serum dilution
